Experimental data taken from publication PMC2791412 (Biochemistry, 2009).
Like-named read-outs stand apart in the source and are kept apart here. No end group written: not given here.

Columns and labels:
[1] = molecular target: T1, calmodulin (native vertebrate CaM) (vertebrate, UniProt P0DP23 1-149); assay: other fluorescence titration
[2] = molecular target: T1, calmodulin (native vertebrate CaM); assay: other fluorescence titration; remark: listed apart in the source

Binder	Kd [1]	Kd [2]
AHKAATKIQASFRGHITRKKLKGEKKDDVQ (domain or fragment, also: fluorescent reporter) [BIQ, fluorescent reporter containing an IQ domain sequence derived from neuromodulin]	2.4 µM	2.9 µM
TERAAVAIQSQFRKFQKKKAGSQS (domain or fragment, also: fluorescent reporter) [BIQPEP, fluorescent reporter containing an IQ domain sequence derived from PEP19]	1130 µM	11 µM
